From article PMC7042713
Values belong to the substance of their own block, whether it stands above or below them.

What was measured:
Assay in all cases: SEC-MALS
AtSOK1 DIX domain D78A = conditions: 2mg/ml D78A; parent value is 2mg/ml wt; calculated monomer mass of AtSOK1 DIX 25 kD (panel A); parent: 87
BhDIX K82A = conditions: monomer mass of BhDIX printed in panel as 24kD; parent: 90
BhDIX L8A = conditions: parent: est. 9.0e4; read off a plot
BhDIX Y10A = conditions: parent: est. 9.0e4; read off a plot
CpDIX D67A = conditions: monomer mass of CpDIX printed in panel as 22kD; parent: 90

other: observed molar mass (SEC-MALS, self-association) (AtSOK1 DIX domain D78A): 25 kD
Substance: AtSOK1 DIX domain (Arabidopsis thaliana SOSEKI1), wild type D78A

Substance: Blastocystis hominis DIX domain K82A
other: observed molar mass (SEC-MALS, self-association) (BhDIX K82A): 23 kD

Substance: Blastocystis hominis DIX domain L8A
other: observed molar mass (SEC-MALS, self-association) (BhDIX L8A): 55000 g/mol

Substance: Blastocystis hominis DIX domain Y10A
other: observed molar mass (SEC-MALS, self-association) (BhDIX Y10A): 35000 g/mol

Substance: Cryptosporidium parvum DIX domain D67A
other: observed molar mass (SEC-MALS, self-association) (CpDIX D67A): 22 kD
